This is an account of results in article PMC4182932 (Current protocols in protein science / editorial board, …, 2014).

The series concerns the molecule itself. The experiment in a line: AUC.

B1: βB1-crystallin (natural protein, human, UniProt P53674 1-252, looked up)
chain: MSQAAKASASATVAVNPGPDTKGKGAPPAGTSPSPGTTLAPTTVPITSAKAAELPPGNYRLVVFELENFQGRRAEFSGECSNLADRGFDRVRSIIVSAGPWVAFEQSNFRGEMFILEKGEYPRWNTWSSSYRSDRLMSFRPIKMDAQEHKISLFEGANFKGNTIEIQGDDAPSLWVYGFSDRVGSVKVSSGTWVGYQYPGYRGYQYLLEPGDFRHWNEWGAFQPQMQSLRRLRDKQWHLEGSFPVLATEPPK
In the case of B1, the “stoichiometry N” value is 2.
